The experiment has as its target rice storage protein glutelin B1 (rice) (UniProt P14323).

Take pepsin (enzyme): the degradation by pepsin treatment (Western blot) amounted to 90 % degraded.

Values taken from patent US20070192906A1.
